Experimental data from paper PMC7765500, “Siderophore Scaffold as Carrier for Antifungal Peptides in Therapy of Aspergillus fumigatus Infections” (Journal of Fungi, 2020).

Assays:
[1] = format: physicochemical; settings: pH 7.4
Experimental: Aliquots of 50 µL of ^68Ga-labelled conjugate (~5 µM) were added to 450 µL of phosphate-buffered saline pH 7.4 (PBS) and 500 µL of Octanol into a 1.5 mL Eppendorf tube. The mixture was vigorously shaken for 20 min at 1400 rpm in a standard vortex (MS 3, IKA, Staufen, Germany) and hereafter, 200 µL of each phase removed and measured in a gamma counter (2480 automatic gamma counter Wizard2 3’’, Perkin Elmer, Waltham, MA, USA) LogD was calculated as the ratio of octanol/water phase using Excel. (n = 3, six technical replicates)

A. fumigatus = test: Uptake assay of 68Ga-labelled conjugates in A. fumigatus; format: cell-based, Aspergillus fumigatus; settings: iron-depleted AMM, 45 min, 37 °C
Experimental: Assays were performed as previously described. Briefly, uptake and competition assays were performed with A. fumigatus in iron-depleted and iron-replete Aspergillus minimal media (AMM), using a 96-well MultiScreen Filter Plates HTS (1 μm glass fiber filter, Merck Millipore, Darmstadt, Germany). Compounds were incubated for 45 min at 37 °C and filters measured in a gamma counter. Competition assays were performed in the same way except for pre-incubation with the iron-containing antifungal conjugates for 15 min, resulting in a competition at the MirB transporter to show specific binding to MirB.

in vivo = test: in vivo; parameters: species or system BALB/c mice; settings: mouse, iv; for tissue uptake: female, BALB/c, 0.4 nmol, total radioactivity, Kidney uptake
Experimental: Stability test and biodistribution were conducted in 4–6 weeks-old female BALB/c mice (in-house breed, ZVTA Innsbruck). ^68Ga-labelled conjugates, dissolved in PBS (Ph. Eur. pH 7.4) and pH adjusted to pH 6.5 with sodium acetate, were injected via lateral tail vein using approximately 0.4 nmol of compound and a volume of 150 µL. For biodistribution, the same procedure was applied except for different time points of 45 and 90 min. Hereafter the animals were euthanized by cervical dislocation and the organs (blood, spleen, pancreas, stomach, liver, kidneys, heart, lung, muscle, femur) were removed and weighed. The activity of the samples was measured in a gamma counter and the results were calculated as a percentage of injected dose per gram tissue (%ID/g).

[2] = Biodistribution Intestine 45 min
[3] = Biodistribution Intestine 90 min
[4] = Biodistribution Pancreas 45 min
[5] = Biodistribution Pancreas 90 min

Row | SMILES | logD [1] | Uptake into A. fumigatus hyphae normalized to uptake of [68Ga]Ga-TAFC (A. fumigatus) [%] | tissue uptake at 0.75 h (in vivo; Biodistribution Blood 45 min) [%ID/g] | tissue uptake at 1.5 h (in vivo; Biodistribution Blood 90 min) [%ID/g] | tissue uptake at 0.75 h (in vivo; Biodistribution Femur 45 min) [%ID/g] | tissue uptake at 1.5 h (in vivo; Biodistribution Femur 90 min) [%ID/g] | tissue uptake at 0.75 h (in vivo; Biodistribution Heart 45 min) [%ID/g] | tissue uptake at 1.5 h (in vivo; Biodistribution Heart 90 min) [%ID/g] | tissue uptake at 0.75 h (in vivo; [2]) [%ID/g] | tissue uptake at 1.5 h (in vivo; [3]) [%ID/g] | tissue uptake at 0.75 h (in vivo; Biodistribution Kidneys 45 min) [%ID/g] | tissue uptake at 1.5 h (in vivo; Biodistribution Kidneys 90 min) [%ID/g] | tissue uptake at 0.75 h (in vivo; Biodistribution Liver 45 min) [%ID/g] | tissue uptake at 1.5 h (in vivo; Biodistribution Liver 90 min) [%ID/g] | tissue uptake at 0.75 h (in vivo; Biodistribution Lung 45 min) [%ID/g] | tissue uptake at 1.5 h (in vivo; Biodistribution Lung 90 min) [%ID/g] | tissue uptake at 0.75 h (in vivo; Biodistribution Muscle 45 min) [%ID/g] | tissue uptake at 1.5 h (in vivo; Biodistribution Muscle 90 min) [%ID/g] | tissue uptake at 0.75 h (in vivo; [4]) [%ID/g] | tissue uptake at 1.5 h (in vivo; [5]) [%ID/g] | further results
1 | CC(=O)N[C@@H]1CCCN(O)C(=O)/C=C(/C)CCOC(=O)[C@H](NC(=O)CCC(=O)N[C@H](CCCNC(=N)N)C(=O)N[C@H](CCCCN)C(=O)N[C@H](CCCCN)C(=O)N[C@H](Cc2c[nH]c3ccccc23)C(=O)N[C@H](Cc2ccccc2)C(=O)N[C@H](Cc2c[nH]c3ccccc23)C(N)=O)CCCN(O)C(=O)/C=C(/C)CCOC(=O)[C@H](NC(C)=O)CCCN(O)C(=O)/C=C(/C)CCOC1=O (stereo in doubt) [[^68Ga]Ga-DAFC-D-PAF26, metal not drawn] | -3.35 ± 0.16 | 137 | 1.08 ± 0.12 | 0.4 ± 0.04 | 1.47 ± 0.09 | 1.11 ± 0.16 | 0.76 ± 0.02 | 0.6 ± 0.23 | 0.63 ± 0.02 | 0.56 ± 0.03 | 150 ± 18 | 158 ± 25.6 | 20.8 ± 0.58 | 23 ± 0.89 | 2.16 ± 0.19 | 1.31 ± 0.23 | 0.42 ± 0.18 | 0.28 ± 0.1 | 0.41 ± 0.02 | 0.26 ± 0.03 | tissue uptake (in vivo): 150 %ID/g; tissue uptake at 0.75 h (in vivo; Biodistribution Spleen 45 min): 2.21 ± 0.15 %ID/g; tissue uptake at 1.5 h (in vivo; Biodistribution Spleen 90 min): 1.97 ± 0.21 %ID/g; tissue uptake at 0.75 h (in vivo; Biodistribution Stomach 45 min): 0.45 ± 0.17 %ID/g; tissue uptake at 1.5 h (in vivo; Biodistribution Stomach 90 min): 0.35 ± 0.03 %ID/g
2 | CC(=O)NC1CCCN(O)C(=O)/C=C(/C)CCOC(=O)C(NC(=O)[C@@H](Cc2ccccc2)NC(=O)[C@H](CC(C)C)NC(=O)[C@H](CC(N)=O)NC(C)=O)CCCN(O)C(=O)/C=C(/C)CCOC(=O)C(NC(C)=O)CCCN(O)C(=O)/C=C(/C)CCOC1=O (stereo in doubt) [[^68Ga]Ga-DAFC-NLF-Ac, metal not drawn] | -0.8 ± 0.08 | 35 | 0.46 ± 0.1 | 0.13 ± 0.1 | 0.16 ± 0.05 | 0.59 ± 0.5 | 0.22 ± 0.02 | 0.12 ± 0.11 | 3.09 ± 0.03 | 4.85 ± 1.78 | 35.7 ± 1.73 | 39.9 ± 2.66 | 0.85 ± 0.51 | 0.44 ± 0.05 | 0.62 ± 0.01 | 0.32 ± 0.06 | 0.18 ± 0.08 | 0.17 ± 0.07 | 0.21 ± 0.06 | 0.1 ± 0.06 | tissue uptake (in vivo): 36 %ID/g; tissue uptake at 0.75 h (in vivo; Biodistribution Spleen 45 min): 0.35 ± 0.1 %ID/g; tissue uptake at 1.5 h (in vivo; Biodistribution Spleen 90 min): 0.24 ± 0.07 %ID/g; tissue uptake at 0.75 h (in vivo; Biodistribution Stomach 45 min): 0.69 ± 0.31 %ID/g; tissue uptake at 1.5 h (in vivo; Biodistribution Stomach 90 min): 2.04 ± 0.74 %ID/g
3 | CC(=O)N[C@@H]1CCCN(O)C(=O)/C=C(/C)CCOC(=O)[C@H](NC(=O)CCC(=O)N[C@@H](CC(N)=O)C(=O)N[C@@H](CC(C)C)C(=O)N[C@H](Cc2ccccc2)C(=O)O)CCCN(O)C(=O)/C=C(/C)CCOC(=O)[C@H](NC(C)=O)CCCN(O)C(=O)/C=C(/C)CCOC1=O (stereo in doubt) [[^68Ga]Ga-DAFC-succ-NLF, metal not drawn] | -2.84 ± 0.17 | 13 | 0.41 ± 0.14 | 0.05 ± 0.03 | 1.76 ± 0.17 | 0.31 ± 0.13 | 0.18 ± 0.09 | 0.05 ± 0.02 | 0.4 ± 0.1 | 0.36 ± 0.07 | 3.27 ± 0.61 | 2.93 ± 0.38 | 0.37 ± 0.07 | 0.3 ± 0.05 | 0.61 ± 0.14 | 0.21 ± 0.05 | 0.08 ± 0.01 | 0.11 ± 0.14 | 0.14 ± 0.05 | 0.06 ± 0.02 | tissue uptake at 0.75 h (in vivo; Biodistribution Spleen 45 min): 0.23 ± 0.04 %ID/g; tissue uptake at 1.5 h (in vivo; Biodistribution Spleen 90 min): 0.19 ± 0.03 %ID/g; tissue uptake at 0.75 h (in vivo; Biodistribution Stomach 45 min): 0.19 ± 0.09 %ID/g; tissue uptake at 1.5 h (in vivo; Biodistribution Stomach 90 min): 0.11 ± 0.01 %ID/g
